# From patent US20160194355A1 (MARUHA NICHIRO, published 2016)
# Target: dipeptidyl peptidase-IV (DPPIV) (Human, recombinant; manufactured by Biomol) (Human, UniProt P27487 39-766, limits assumed)
# Assay: cell-based or functional assay
# Sequence of dipeptidyl peptidase-IV (DPPIV) (Human, recombinant; manufactured by Biomol) (P27487 39-766 limits assumed): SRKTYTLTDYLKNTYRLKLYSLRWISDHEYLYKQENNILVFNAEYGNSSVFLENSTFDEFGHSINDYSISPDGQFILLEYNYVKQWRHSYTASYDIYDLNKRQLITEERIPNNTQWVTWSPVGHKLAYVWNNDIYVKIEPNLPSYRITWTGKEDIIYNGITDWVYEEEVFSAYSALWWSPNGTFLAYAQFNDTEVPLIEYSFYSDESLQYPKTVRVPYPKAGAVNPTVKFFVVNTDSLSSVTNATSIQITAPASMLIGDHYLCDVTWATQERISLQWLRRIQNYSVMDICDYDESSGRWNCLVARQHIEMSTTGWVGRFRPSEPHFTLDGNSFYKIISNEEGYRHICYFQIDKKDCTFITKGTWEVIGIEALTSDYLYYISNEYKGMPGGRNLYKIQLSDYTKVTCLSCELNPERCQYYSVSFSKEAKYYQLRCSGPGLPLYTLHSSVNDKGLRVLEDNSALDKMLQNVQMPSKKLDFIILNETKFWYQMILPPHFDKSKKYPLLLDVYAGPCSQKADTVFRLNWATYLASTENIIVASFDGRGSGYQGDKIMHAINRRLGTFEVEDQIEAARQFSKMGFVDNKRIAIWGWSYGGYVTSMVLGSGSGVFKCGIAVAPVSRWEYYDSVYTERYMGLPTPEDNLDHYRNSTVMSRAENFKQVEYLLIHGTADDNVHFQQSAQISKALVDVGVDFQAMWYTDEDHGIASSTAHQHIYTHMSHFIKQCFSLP
row,Binder,"IC50 Value (µM), DPPIV inhibitory activity (enzyme activity on H-Gly-Pro-AMC substrate, fluorescence) [µM]"
1,FPVG [Phe-Pro-Val-Gly (FPVG)],40
2,LPL [Leu-Pro-Leu (LPL)],82
3,LPF [Leu-Pro-Phe (LPF)],88
4,FP [Phe-Pro (FP)],> 100
5,VIP [Val-Ile-Pro (VIP)],> 100
6,VLP [Val-Leu-Pro (VLP)],> 100
7,IVP [Ile-Val-Pro (IVP)],> 100
8,IIP [Ile-Ile-Pro (IIP)],> 100
9,WIP [Trp-Ile-Pro (WIP)],> 100
10,WLP [Trp-Leu-Pro (WLP)],> 100
11,IPL [Ile-Pro-Leu (IPL)],26
12,LPVL [Leu-Pro-Val-Leu (LPVL)],46
13,IP [Ile-Pro (IP)],66
14,LP [Leu-Pro (LP)],> 100
15,VPI [Val-Pro-Ile (VPI)],3
16,VPL [Val-Pro-Leu (VPL)],19
17,IPI [Ile-Pro-Ile (IPI)],3
